Laboratory results: US20260266848A1, “COMPOSITIONS AND METHODS FOR DIAGNOSING AND TREATING DYSTONIA” (Duke University, priority 2023, published 2026)

Test system: DYT1 patient plasma derived EVs
Experiment: Plasma-derived EV proteomics (ExoQuick ULTRA, DIA LC/MS/MS), DYT1 vs Healthy Controls
Parameters: species or system human
Settings: Hs. Plasma EVs (DYT1/WT); significance of genotype difference
Procedure: Data was obtained for extracellular vesicles using previously acquired samples. The ExoQuick® ULTRA EV Isolation System was used to fractionate and enrich EVs from plasma. Isolated plasma EV samples were then submitted to proteomic analysis by the Duke Proteomics and Metabolomics Core Facility (DPMCF). At the DPMCF, quantitative (LC/MS/MS) was performed on 500 ng of each sample, using an EvoSep One UPLC system coupled to a Thermo Orbitrap Astral high-resolution accurate mass tandem mass spectrometer (Thermo). Briefly, the sample was eluted directly from an Evotip which was subjected to a low organic wash and then subjected to an analytical separation using a 1.7 μm EvoSep 150 um ID×15 cm endurance (EveoSep) column running an SPD30 gradient from approximately 5 to 30% acetonitrile with 0.1% formic acid with a column temperature of 50 C. Data collection on the Orbitrap Astral mass spectrometer was performed in a data-independent acquisition (DIA) mode of acquisition with a r=240,000 (@m/z 200) full MS scan from m/z 380-980 with a target AGC value of 4e5 ions. Fixed DIA, windows of 4 m/z from m/z 380 to 980 DIA MS/MS scans were acquired in the Astral with a target AGC value of 5e4 and a max fill time of 6 ms. HCD collision energy setting of 27% was used for all MS2 scans.

Row | Molecule | -LogP
1 | TUBB1 (protein, UniProt Q9H4B7 1-451, looked up) Tubulin beta-1 chain: MREIVHIQIGQCGNQIGAKFWEMIGEEHGIDLAGSDRGASALQLERISVYYNEAYGRKYVPRAVLVDLEPGTMDSIRSSKLGALFQPDSFVHGNSGAGNNWAKGHYTEGAELIENVLEVVRHESESCDCLQGFQIVHSLGGGTGSGMGTLLMNKIREEYPDRIMNSFSVMPSPKVSDTVVEPYNAVLSIHQLIENADACFCIDNEALYDICFRTLKLTTPTYGDLNHLVSLTMSGITTSLRFPGQLNADLRKLAVNMVPFPRLHFFMPGFAPLTAQGSQQYRALSVAELTQQMFDARNTMAACDLRRGRYLTVACIFRGKMSTKEVDQQLLSVQTRNSSCFVEWIPNNVKVAVCDIPPRGLSMAATFIGNNTAIQEIFNRVSEHFSAMFKRKAFVHWYTSEGMDINEFGEAENNIHDLVSEYQQFQDAKAVLEEDEEVTEEAEMEPEDKGH | 2.267
2 | ACAA1 (protein, UniProt P09110 27-424, looked up) 3-ketoacyl-CoA thiolase, …: LSGAPQASAADVVVVHGRRTAICRAGRGGFKDTTPDELLSAVMTAVLKDVNLRPEQLGDICVGNVLQPGAGAIMARIAQFLSDIPETVPLSTVNRQCSSGLQAVASIAGGIRNGSYDIGMACGVESMSLADRGNPGNITSRLMEKEKARDCLIPMGITSENVAERFGISREKQDTFALASQQKAARAQSKGCFQAEIVPVTTTVHDDKGTKRSITVTQDEGIRPSTTMEGLAKLKPAFKKDGSTTAGNSSQVSDGAAAILLARRSKAEELGLPILGVLRSYAVVGVPPDIMGIGPAYAIPVALQKAGLTVSDVDIFEINEAFASQAAYCVEKLRLPPEKVNPLGGAVALGHPLGCTGARQVITLLNELKRRGKRAYGVVSMCIGTGMGAAAVFEYPGN | 1.434
3 | SLC2A1 (protein, UniProt P11166 1-492, looked up) Solute carrier family 2, …: MEPSSKKLTGRLMLAVGGAVLGSLQFGYNTGVINAPQKVIEEFYNQTWVHRYGESILPTTLTTLWSLSVAIFSVGGMIGSFSVGLFVNRFGRRNSMLMMNLLAFVSAVLMGFSKLGKSFEMLILGRFIIGVYCGLTTGFVPMYVGEVSPTALRGALGTLHQLGIVVGILIAQVFGLDSIMGNKDLWPLLLSIIFIPALLQCIVLPFCPESPRFLLINRNEENRAKSVLKKLRGTADVTHDLQEMKEESRQMMREKKVTILELFRSPAYRQPILIAVVLQLSQQLSGINAVFYYSTSIFEKAGVQQPVYATIGSGIVNTAFTVVSLFVVERAGRRTLHLIGLAGMAGCAILMTIALALLEQLPWMSYLSIVAIFGFVAFFEVGPGPIPWFIVAELFSQGPRPAAIAVAGFSNWTSNFIVGMCFQYVEQLCGPYVFIIFTVLLVLFFIFTYFKVPETKGRTFDEIASGFRQGGASQSDKTPEELFHPLGADSQV | 1.635
4 | BZW2 (protein, UniProt Q9Y6E2 1-419, looked up) eIF5-mimic protein 1: MNKHQKPVLTGQRFKTRKRDEKEKFEPTVFRDTLVQGLNEAGDDLEAVAKFLDSTGSRLDYRRYADTLFDILVAGSMLAPGGTRIDDGDKTKMTNHCVFSANEDHETIRNYAQVFNKLIRRYKYLEKAFEDEMKKLLLFLKAFSETEQTKLAMLSGILLGNGTLPATILTSLFTDSLVKEGIAASFAVKLFKAWMAEKDANSVTSSLRKANLDKRLLELFPVNRQSVDHFAKYFTDAGLKELSDFLRVQQSLGTRKELQKELQERLSQECPIKEVVLYVKEEMKRNDLPETAVIGLLWTCIMNAVEWNKKEELVAEQALKHLKQYAPLLAVFSSQGQSELILLQKVQEYCYDNIHFMKAFQKIVVLFYKADVLSEEAILKWYKEAHVAKGKSVFLDQMKKFVEWLQNAEEESESEGEEN | 1.385
5 | LRRC59 (protein, UniProt Q96AG4 1-307, looked up) Leucine-rich …: MTKAGSKGGNLRDKLDGNELDLSLSDLNEVPVKELAALPKATILDLSCNKLTTLPSDFCGLTHLVKLDLSKNKLQQLPADFGRLVNLQHLDLLNNKLVTLPVSFAQLKNLKWLDLKDNPLDPVLAKVAGDCLDEKQCKQCANKVLQHMKAVQADQERERQRRLEVEREAEKKREAKQRAKEAQERELRKREKAEEKERRRKEYDALKAAKREQEKKPKKEANQAPKSKSGSRPRKPPPRKHTRSWAVLKLLLLLLLFGVAGGLVACRVTELQQQPLCTSVNTIYDNAVQGLRRHEILQWVLQTDSQQ | 1.584
6 | MARS1 (protein, UniProt P56192 1-900, looked up) Methionine--tRNA ligase, …: MRLFVSDGVPGCLPVLAAAGRARGRAEVLISTVGPEDCVVPFLTRPKVPVLQLDSGNYLFSTSAICRYFFLLSGWEQDDLTNQWLEWEATELQPALSAALYYLVVQGKKGEDVLGSVRRALTHIDHSLSRQNCPFLAGETESLADIVLWGALYPLLQDPAYLPEELSALHSWFQTLSTQEPCQRAAETVLKQQGVLALRPYLQKQPQPSPAEGRAVTNEPEEEELATLSEEEIAMAVTAWEKGLESLPPLRPQQNPVLPVAGERNVLITSALPYVNNVPHLGNIIGCVLSADVFARYSRLRQWNTLYLCGTDEYGTATETKALEEGLTPQEICDKYHIIHADIYRWFNISFDIFGRTTTPQQTKITQDIFQQLLKRGFVLQDTVEQLRCEHCARFLADRFVEGVCPFCGYEEARGDQCDKCGKLINAVELKKPQCKVCRSCPVVQSSQHLFLDLPKLEKRLEEWLGRTLPGSDWTPNAQFITRSWLRDGLKPRCITRDLKWGTPVPLEGFEDKVFYVWFDATIGYLSITANYTDQWERWWKNPEQVDLYQFMAKDNVPFHSLVFPCSALGAEDNYTLVSHLIATEYLNYEDGKFSKSRGVGVFGDMAQDTGIPADIWRFYLLYIRPEGQDSAFSWTDLLLKNNSELLNNLGNFINRAGMFVSKFFGGYVPEMVLTPDDQRLLAHVTLELQHYHQLLEKVRIRDALRSILTISRHGNQYIQVNEPWKRIKGSEADRQRAGTVTGLAVNIAALLSVMLQPYMPTVSATIQAQLQLPPPACSILLTNFLCTLPAGHQIGTVSPLFQKLENDQIESLRQRFGGGQAKTSPKPAVVETVTTAKPQQIQALMDEVTKQGNIVRELKAQKADKNEVAAEVAKLLDLKKQLAVAEGKPPEAPKGKKKK | 1.714
7 | MRC2 (protein, UniProt Q9UBG0 31-1479, looked up) C-type mannose receptor 2: GAPGDAALPEPNVFLIFSHGLQGCLEAQGGQVRVTPACNTSLPAQRWKWVSRNRLFNLGTMQCLGTGWPGTNTTASLGMYECDREALNLRWHCRTLGDQLSLLLGARTSNISKPGTLERGDQTRSGQWRIYGSEEDLCALPYHEVYTIQGNSHGKPCTIPFKYDNQWFHGCTSTGREDGHLWCATTQDYGKDERWGFCPIKSNDCETFWDKDQLTDSCYQFNFQSTLSWREAWASCEQQGADLLSITEIHEQTYINGLLTGYSSTLWIGLNDLDTSGGWQWSDNSPLKYLNWESDQPDNPSEENCGVIRTESSGGWQNRDCSIALPYVCKKKPNATAEPTPPDRWANVKVECEPSWQPFQGHCYRLQAEKRSWQESKKACLRGGGDLVSIHSMAELEFITKQIKQEVEELWIGLNDLKLQMNFEWSDGSLVSFTHWHPFEPNNFRDSLEDCVTIWGPEGRWNDSPCNQSLPSICKKAGQLSQGAAEEDHGCRKGWTWHSPSCYWLGEDQVTYSEARRLCTDHGSQLVTITNRFEQAFVSSLIYNWEGEYFWTALQDLNSTGSFFWLSGDEVMYTHWNRDQPGYSRGGCVALATGSAMGLWEVKNCTSFRARYICRQSLGTPVTPELPGPDPTPSLTGSCPQGWASDTKLRYCYKVFSSERLQDKKSWVQAQGACQELGAQLLSLASYEEEHFVANMLNKIFGESEPEIHEQHWFWIGLNRRDPRGGQSWRWSDGVGFSYHNFDRSRHDDDDIRGCAVLDLASLQWVAMQCDTQLDWICKIPRGTDVREPDDSPQGRREWLRFQEAEYKFFEHHSTWAQAQRICTWFQAELTSVHSQAELDFLSHNLQKFSRAQEQHWWIGLHTSESDGRFRWTDGSIINFISWAPGKPRPVGKDKKCVYMTASREDWGDQRCLTALPYICKRSNVTKETQPPDLPTTALGGCPSDWIQFLNKCFQVQGQEPQSRVKWSEAQFSCEQQEAQLVTITNPLEQAFITASLPNVTFDLWIGLHASQRDFQWVEQEPLMYANWAPGEPSGPSPAPSGNKPTSCAVVLHSPSAHFTGRWDDRSCTEETHGFICQKGTDPSLSPSPAALPPAPGTELSYLNGTFRLLQKPLRWHDALLLCESRNASLAYVPDPYTQAFLTQAARGLRTPLWIGLAGEEGSRRYSWVSEEPLNYVGWQDGEPQQPGGCTYVDVDGAWRTTSCDTKLQGAVCGVSSGPPPPRRISYHGSCPQGLADSAWIPFREHCYSFHMELLLGHKEARQRCQRAGGAVLSILDEMENVFVWEHLQSYEGQSRGAWLGMNFNPKGGTLVWQDNTAVNYSNWGPPGLGPSMLSHNSCYWIQSNSGLWRPGACTNITMGVVCKLPRAEQSSFSPSALPENPAALVVVLMAVLLLLALLTAALILYRRRQSIERGAFEGARYSRSSSSPTEATEKNILVSDMEMNEQQE | 1.456
8 | EHD4 (protein, UniProt Q9H223 1-541, looked up) EH domain-containing protein 4: MFSWMGRQAGGRERAGGADAVQTVTGGLRSLYLRKVLPLEEAYRFHEFHSPALEDADFENKPMILLVGQYSTGKTTFIRYLLEQDFPGMRIGPEPTTDSFIAVMYGETEGSTPGNALVVDPKKPFRKLSRFGNAFLNRFMCSQLPNQVLKSISVIDSPGILSGEKQRISRGYDFCQVLQWFAERVDRIILLFDAHKLDISDEFSEAIKAFRGQDDKIRVVLNKADQVDTQQLMRVYGALMWSLGKVINTPEVLRVYIGSFWAQPLQNTDNRRLFEAEAQDLFRDIQSLPQKAAVRKLNDLIKRARLAKVHAYIISYLKKEMPSVFGKENKKRELISRLPEIYIQLQREYQISAGDFPEVKAMQEQLENYDFTKFHSLKPKLIEAVDNMLSNKISPLMNLISQEETSTPTQLVQGGAFDGTTEGPFNQGYGEGAKEGADEEEWVVAKDKPVYDELFYTLSPINGKISGVNAKKEMVTSKLPNSVLGKIWKLADCDCDGMLDEEEFALAKHLIKIKLDGYELPSSLPPHLVPPSHRKSLPKAD | 3.322
9 | PSMD12 (protein, UniProt O00232 2-456, looked up) 26S proteasome non-ATPase …: ADGGSERADGRIVKMEVDYSATVDQRLPECAKLAKEGRLQEVIETLLSLEKQTRTASDMVSTSRILVAVVKMCYEAKEWDLLNENIMLLSKRRSQLKQAVAKMVQQCCTYVEEITDLPIKLRLIDTLRMVTEGKIYVEIERARLTKTLATIKEQNGDVKEAASILQELQVETYGSMEKKERVEFILEQMRLCLAVKDYIRTQIISKKINTKFFQEENTEKLKLKYYNLMIQLDQHEGSYLSICKHYRAIYDTPCIQAESEKWQQALKSVVLYVILAPFDNEQSDLVHRISGDKKLEEIPKYKDLLKLFTTMELMRWSTLVEDYGMELRKGSLESPATDVFGSTEEGEKRWKDLKNRVVEHNIRIMAKYYTRITMKRMAQLLDLSVDESEAFLSNLVVNKTIFAKVDRLAGIINFQRPKDPNNLLNDWSQKLNSLMSLVNKTTHLIAKEEMIHNLQ | 1.461
